B1: GST-GDI1 (guanosine dissociation inhibitor 1, full-length) (natural protein)
chain: MAEQEPTAEQLAQIAAENEEDEHSVNYKPPAQKSIQEIQELDKDDESLRKYKEALLGRVAVSADPNVPNVVVTGLTLVCSSAPGPLELDLTGDLESFKKQSFVLKEGVEYRIKISFRVNREIVSGMKYIQHTYRKGVKIDKTDYMVGSYGPRAEEYEFLTPVEEAPKGMLARGSYSIKSRFTDDDKTDHLSWEWNLTIKKDWKD
B2: His-IQGAP1 C794 (C-terminal 794 amino acids of IQ motif-containing GTPase-activating protein 1) (domain or fragment)
chain: PPMVVVRKFVHLLDQSDQDFQEELDLMKMREEVITLIRSNQQLENDLNLMDIKIGLLVKNKITLQDVVSHSKKLTKKNKEQLSDMMMINKQKGGLKALSKEKREKLEAYQHLFYLLQTNPTYLAKLIFQMPQNKSTKFMDSVIFTLYNYASNQREEYLLLRLFKTALQEEIKSKVDQIQEIVTGNPTVIKMVVSFNRGARGQNALRQILAPVVKEIMDDKSLNIKTDPVDIYKSWVNQMESQTGEASKLPYDVTPEQALAHEEVKTRLDSSIRNMRAVTDKFLSAIVSSVDKIPYGMRFIAKVLKDSLHEKFPDAGEDELLKIIGNLLYYRYMNPAIVAPDAFDIIDLSAGGQLTTDQRRNLGSIAKMLQHAASNKMFLGDNAHLSIINEYLSQSYQKFRRFFQTACDVPELQDKFNVDEYSDLVTLTKPVIYISIGEIINTHTLLLDHQDAIAPEHNDPIHELLDDLGEVPTIESLIGESSGNLNDPNKEALAKTEVSLTLTNKFDVPGDENAEMDARTILLNTKRLIVDVIRFQPGETLTEILETPATSEQEAEHQRAMQRRAIRDAKTPDKMKKSKSVKEDSNLTLQEKKEKIQTGLKKLTELGTVDPKNKYQELINDIARDIRNQRRYRQRRKAELVKLQQTYAALNSKATFYGEQVDYYKSYIKTCLDNLASKGKVSKKPREMKGKKSKKISLKYTAARLHEKGVLLEIEDLQVNQFKNVIFEISPTEEVGDFEVKAKFMGVQMETFMLHYQDLLQLQYEGVAVMKLFDRAKVNVNLLIFLLNKKFYGK

Tests used:
RAC1^T17N, purified [1] = target: T1, RAC1^T17N, purified (human, UniProt P63000 1-192, T17N); assay: mdGDP-bound RAC1
RAC1^F28L, purified [2] = target: T2, RAC1^F28L, purified (human, UniProt P63000 1-192, F28L); assay: mdGDP-bound RAC1
[3] = target: T3, RAC1^WT (Ras-related C3 botulinum toxin substrate 1, wild type), purified (human, UniProt P63000 1-192); assay: mdGDP-bound RAC1
RAC1^P29S, purified = RAC1^P29S, purified (human, UniProt P63000 1-192, P29S); assay: mGppNHp-bound RAC1
RAC1^T17N, purified [4] = target: T1, RAC1^T17N, purified; assay: mGppNHp-bound RAC1
RAC1^F28L, purified [5] = target: T2, RAC1^F28L, purified; assay: mGppNHp-bound RAC1
[6] = target: T3, RAC1^WT (Ras-related C3 botulinum toxin …); assay: mGppNHp-bound RAC1

Row | Binder | koff (RAC1^T17N, purified [1]) | koff (RAC1^F28L, purified [2]) | koff [3] | koff (RAC1^P29S, purified) | koff (RAC1^T17N, purified [4]) | koff (RAC1^F28L, purified [5]) | koff [6]
1 | B1 | 0.038 s⁻¹ | 1.03 s⁻¹ | 0.693 s⁻¹ |  |  |  | 
2 | B2 |  |  |  | 0.138 s⁻¹ | 0.0142 s⁻¹ | 0.206 s⁻¹ | 0.404 s⁻¹

From PMC12702776 (2025)
